Reference: patent publication US20140370037A1 (published 2014)

T1: human DLL3 antigen (human, UniProt Q9NYJ7 27-492, limits assumed)
T1 construct: also called immobilized human DLL3; recombinant human DLL3
T1 sequence (looked up): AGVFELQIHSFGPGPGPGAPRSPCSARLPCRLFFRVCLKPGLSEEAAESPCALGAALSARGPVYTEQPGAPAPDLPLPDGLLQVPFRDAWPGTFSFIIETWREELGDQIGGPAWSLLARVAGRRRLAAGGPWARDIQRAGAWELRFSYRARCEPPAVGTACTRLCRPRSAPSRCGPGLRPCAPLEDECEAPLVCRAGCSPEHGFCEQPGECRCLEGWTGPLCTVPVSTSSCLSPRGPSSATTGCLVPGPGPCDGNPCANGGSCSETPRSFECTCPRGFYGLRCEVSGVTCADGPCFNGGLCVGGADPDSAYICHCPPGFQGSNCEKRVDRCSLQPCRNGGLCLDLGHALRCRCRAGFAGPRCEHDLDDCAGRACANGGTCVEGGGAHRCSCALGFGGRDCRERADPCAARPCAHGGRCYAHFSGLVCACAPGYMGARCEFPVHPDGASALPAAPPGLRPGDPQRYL

B1: SC16.73 (antibody, V domains shown)
VH: QVQLQQSGAELMKPGASVKISCKANGYTFSSYWIEWLRQRPGHGLEWIGEILPGSDNSNYNEKFKGKATFTADTSSNTAYMQLSSLTSEESAVYYCTRGLRRDGSYYYVMEHWGQGTSVTVSS
VL: DIQMTQSPSSLSASLGERVSLTCRASQDIGYSLNWLQQEPDGTIKRLIYATSSLDSGVPKRFSGSRSGSDYSLTISSLESEDFVDYYCLQYASSPWTFGGGTKLEIK
notes: murine mAb
B2: SC16.84 (antibody, V domains shown)
VH: EVQLQQSGPELVKPGASMKISCKASGYSFTGYTMNWVKQSHGKNLEWIGLINPYNGGTTYNQKFKGKATLTVDKSSSTAYMELLSLTSEDSAVYYCALGYYGNYRRYFDVWGAGTTVTVSS
VL: DIQMTQSPSSLSASLGGKVTITCKASQDIKKYIAWYQHKPGKGPRLLIHYTSTLEPGIPSRFSGSGSGRDYSFSISNLEPEDIATYYCLQYDILWTFGGGTKLEIK
notes: murine mAb
B3: SC16.78 (antibody, V domains shown)
VH: EVKLVESGGGLVKPGGSLKLSCAASGFTFGRYVMSWVRQTPEKKLEWVASITSGGTTYYPDSVKGRFTISRDNARNILYLQMSSLRSEDTAMYYCARVYYHYDDIFAYWGQGTLVTVSA
VL: DIKMTQSPSSMYASLGERVTITCKASQDINSYLSWFQQKPGRSPKTLIYRANRLVDGVPSRFSGSGSGQDYSLTISSLDYEDMGIYYCLQYDEFPFTFGSGTKLEIK
notes: murine mAb
B4: SC16.106 (antibody, V domains shown)
VH: QVQLKQSGPGLVAPSQSLFITCTVSGFSLTSYEINWVRQPPGKGLEWLGVIWTGGSTNYNSALISRLSISKDNSKSLVFLKMNSLQTDDTAIYYCVRGVYAMDYWGQGTSVTVSS
VL: DIKMTQSPSSMYASLGERVTITCKASQDINSYLSWFQQKPGKSPKTLIYRANRLVDGVPSRFSGSGSGQDYSLTISSLEYEDMGIYYCLQYDEFPFTFGSGTKLEIK
notes: murine mAb
B5: SC16.104 (antibody, V domains shown)
VH: QVQLKESGPDLVQPSQTLSLTCTVSGFSLTFYGVHWVRQPPGKGLEWVGTMGWDDKKYYNSALKSRLSISRDTSKNQVFLKLSSLQTEDTAMYYCTRGGTGFDYWGQGTTLTVSS
VL: QIVLSQSPAILSASPGEKVTMTCRASSSVSYIHWYRQKPGSSPKPWIYATSNLASGVPARFSGSGSGTSYSLTISRVEAEDAATYYCQQWSSNPPTFGAGTKLELK
notes: murine mAb
B6: SC16.109 (antibody, V domains shown)
VL: QIVLTQSPAIMSASPGEKVTMTCSASSSVSYMYWYQQKPGSSPRLLIYDTSNLASGVPVRFSGSGSGTSFSLTISRMEAEDTATYYCQEWSGNPLTFGDGTKLELK
V domain: QIQLVQSGPELKKPGETVKISCKASGYTFTNYGMNWVKQAPGKGLKWMGWINTYTGEPAYADDFKGRFAFSLETSASAAYLQINNLKNEDTATFFCANMRPTRGFAYWGQGTLGTVSA
notes: murine mAb
B7: SC16.79 (antibody, V domains shown)
VH: EVQLQQSGPELVKPGASVKISCKTSGYTFTEYTMHWVKQSHGKSLEWIGGINPNNGGTSYNQKFKGKATLTVDKSSSTAYMELRSLTSEDSAVYYCARGPAWFAYWGQGTLVTVSA
VL: DIVMSQSPSSLAVSAGEKVTMSCKSSQSLLNSRTRKNYLAWYQQKPGQSPKLLIYWASTRESGVPDRFTGSGSGTDFTLTISSVQAEDLAVYYCKQSYNLYTFGGGTKLKIKR
notes: murine mAb
B8: SC16.111 (antibody, V domains shown)
VH: EVQLQQSGPELEKPGASVKISCKASGYSFTGYNMNWVKQSNGKSLEWIGNIDPYYGGSSYKQKFEGKATLTVDKSSSTAYMQLKSLTSEDSAVYYCARGGSNFFDYWGQGTTLTVSS
VL: DIQMTQSPASLAASVGETVTITCRASENIYYSLAWYQQKQGKSPQLLIYNANSLEDGVPSRFSGSGSGTQYSMKINSMQPEDTATYFCKQTYDVPLTFGAGTKLELK
notes: murine mAb
B9: SC16.88 (antibody, V domains shown)
VH: QVQLQQSGAELARPGASVKLSCKASGYTCTSYWMQWVKQRPGQGLEWIGAIYPGDGDTRYTQKFKGKATLTADKSSSTAYMQLSSLASEDSAVYYCARGRRTEAWFAYWGQGTLVTVSA
VL: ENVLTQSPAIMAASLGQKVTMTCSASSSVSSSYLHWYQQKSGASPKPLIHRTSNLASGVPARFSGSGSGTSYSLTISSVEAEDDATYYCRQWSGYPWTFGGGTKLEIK
notes: murine mAb
B10: SC16.107 (antibody, V domains shown)
VH: EVQLQQSGPELVKPGASVKMSCKASGYTFTNYVMHWVKQKPGQGLEWIGYINPYNDGTKYNEKFKGKATLTSDKSSTTAYMALSSLTSEDSAVYYCAVAYYSNWGFAYWGQGTLVTVSA
VL: DIVMTQSHKFMSTSVGDRVSITCKASQDVNTAVGWYQQKPGQSPKLLIYSASYRYTGVPDRFTGSGSGTDFTFTISSVQAEDLAVYYCQQHYSSPYTFGGGTKLEIKR
notes: murine mAb
B11: SC16.72 (antibody, V domains shown)
VH: EVQLQQSGPELVKPGASVKMSCKASGYTFTSYVMHWVKQKPGQGLEWIGYINPYNDGTKYNEKFKGKATLTSDKSSSTAYMELSSLTSEDSAVYYCARLRSRAMDYWGQGTSVTVSS
VL: ENVLTQSPAIMSASLGEKVTMSCRASSSVNYMSWYQQKSDASPKLWIYYTSNLAPGVPARFSGSGSGNSYSLTISSMEGEDAATYYCQQFTSSPYTFGGGTKLEIKR
notes: murine mAb
B12: SC16.81 (antibody, V domains shown)
VH: QVQLKESGPVLVAPSQSLSITCTVSGFSLTSYGVHWVRQPPGKGLEWLGVIWAGGSTNYNSALMSRLSISKDNSKSQVFLKMNSLQTDDTAMYYCAKQGNFYAMDYWGQGTSVTVSS
VL: QIVLTQSPAIMSASLGERVTLTCTASSSVSSSYLHWYQQKPGSSPKLWIYSTSNLASGVPTRFSGSGSGTSYSLRISSMEAEDAATYYCHQYNRSPLTFGAGTKLELK
notes: murine mAb
B13: SC16.101 (antibody, V domains shown)
VL: QIVLTQSPAIMSASLGERVTMTCTASSSVSSSYLHWYQQKPGSSPKLWIYSTSNLASGVPARFSGSESGTSYSLTISNMEAEDAATYYCHQYHRSPFTFGSGTKLEIK
V domain: QVTLKESGPGILQPSQTLSLTCSFSGFSLSTSGMGVGWIRQPSGKGLEWLAHIWWDDVKRYNPALKSRLTISKDASSSQVFLKIASVDTAETATYYCAHILDRAYYFDYWGQGTTLTVTS
notes: murine mAb
B14: SC16.10 (antibody, V domains shown)
VH: QVTLKESGPGILQSSQTLSLTCSFSGFSLSTSGMGVGWIRQPSGKGLEWLAHIWWDDVKRYNPVLKSRLTISKDTSSSQVFLKIASVDTADTATYYCARLVDDLYYFDYWGQGTTLTVSS
VL: QIVLTQSPAIMSASLGERVTMTCTASSSVSSSYLHWYQQKPGSSPKLWIYSTSNLASGVPTRFSGSGSGTSYSLTISSMEAEDAATYYCHQYHRSPFTFGSGTKLEIK
notes: murine mAb
B15: SC16.80 (antibody, V domains shown)
VH: EVQLQQSGPELVKPGGSKKISCKASGYSFTGYSMNWVKQSHGKNLEWIGLINPYSGGTIYNQKFKGKATLTVDKSSSTAYMELLSLTSEDSAVYYCARRSDYPLVYWGQGTLVTVSA
VL: ETTVTQSPASLSMAIGEKVTIRCITSTDIDDDMIWYQQKPGEPPKLLISEGNTLRPGVPSRFSSSGYGTDFVFTIENMLSEDVADYYCLKRDDLPYTFGGGTQVEIKR
notes: murine mAb
B16: SC16.7 (antibody, V domains shown)
VH: EVQLQQSGPELVKPGASVKISCKASGYSFTGYKMHWVKQSHVKSLEWIGRINPYNGATSYNQNFKDKATLTVDKSSSTAYMDLHSLTSEDSAVYFCARGDYRYDWFAYWGQGTLVTVSA
VL: NIMMTQSPSSLAVSAGEKVTMSCKSSQSVLYSSNQKNYLAWYQQKPGQSPKLLIYWASTRESGVPDRFTGSGSGTDFTLTISTVQVEDLAVYYCHQYLSSWTFGGGTKLEIK
notes: murine mAb
B17: SC16.8 (antibody, V domains shown)
VH: QAQLQQSGAELVRPGTSVKVSCKASGYAFTNYLIEWVKQRPGQGLEWIGVINPGTGGTNYNENFKGKATLTADKSSSTAYMQLSSLTSDDSAVYFCARSPYDYHEGAMDYWGQGTSVTVSS
VL: EIQMTQSPSSMSASLGDRITITCQATQDIVKNLNWYQQKPGKPPSFLIYYAIELAEGVPSRFSGSGSGSDYSLTISNLESEDFADYYCLQFYEFPFTFGAGTKLELK
notes: murine mAb
B18: SC16.110 (antibody, V domains shown)
VH: EVQLQQSGPGLVRTGASVKISCKASGYSFTGYYMHWVKQSHGKSLEWIGYISCYNGATTYNQNFKGKATFIVDTSSSTAYMQFNSLTSEDSAVYYCARSDGGHAMDYWGQGTSVTVSS
VL: NIVMTQTPKFLLVSAGDRVTITCKASQSVSNDVAWYQQKPGQSPKLLIYYASNRYTGVPDRFTGSGYGTDFTFTISTVQAEDLAVYFCQQDYSSPPTFGGGTKLEIK
notes: murine mAb
B19: SC16.65 (antibody, V domains shown)
VH: QVTLKESGPGILQPSQTLSLTCSFSGFSLSTSGMGVGWIRQPSGKGLEWLALIWWDDVKRYNPALKSRLTISKDASSSQVFLKIASVDTADTATYYCARIASYDYDVVYAMDYWGQGTSVSVSS
VL: QIVLTQSPALMSASPGEKVTMTCSVTSSVSYMYWYQQKPRSSPKPWIYLTSNLASGVPARFSGSGSGTSYSLTISSVEAEDAATYYCQQWRNNPFTFGSGTKVEIK
notes: murine mAb
B20: SC16.114 (antibody, V domains shown)
VH: EVQLQQSGAELVKPGASVKLSCTASGFNIKDTYIHWVKQRPEQGLEWIGRIDPANGNTKYDPKFQGKATITPDTSSNTAYLQLSSLTSEDTAVYYCARSWRNYGSSFWYFDVWGAGTTVTVSS
VL: QIVLSQSPAILSASPGEKVTMTCRASSSVSYMHWYQQKPGSSPKPWIYATSNLASGVPARFSGSGSGTSYSLTISRVEAEDAATYYCQQWSSNPYTFGGGTKLEIKR
notes: murine mAb
B21: SC16.67 (antibody, V domains shown)
VH: EVQLVETGGGLVQPKGSLKLSCAVSAFTFTTYAMNWVRQAPGKGLEWVARIRNKSNNYATYYADSVKDRFTISRDDSQSMLYLQMNNLKIEDTAMYYCVFYYDYVYWGQGTLVTVSA
VL: QAVVTQESALTTSPGETVTLTCRSSTGAVTTSNYANWIQEKPDHLFTGLIGGTNNRAPGVPARFSGSLIGDKAALTITGAQTEDEAIYFCGLWYSNHLVFGGGTKLTVL
notes: murine mAb

target: T1, human DLL3 antigen; test: ELISA or flow cytometry screen

Binding result, binds:
B1
B2
B3
B4
B5
B6
B7
B8
B9
B10
B11
B12
B13
B14
B15
B16
B17
B18
B19
B20
B21
